{
  "source": "paper PMC3408443",
  "biological_target": "MHC II molecules of Flt3L-mobilized splenic CD11c+ DCs from Balb/c×C57Bl/6 (I-A^b,d/E^d) F1 mice (mouse (endogenous in splenic DCs))",
  "test": "affinity purification with mass spectrometry",
  "data": [
    {"binder": "KELEEQLGPVAEETR", "note": "[… MHC II peptide derived from endogenous apolipoprotein E]", "values": [
      {"measurement": "amount of peptide eluted from MHC II", "value": 15, "unit": "fmol/µL"},
      {"measurement": "copies per cell presented on MHC II", "value": 180, "unit": "copies/cell"}
    ]}
  ]
}
